According to patent publication EP2105501A1 (Immatics Biotechnologies GmbH, dated 2009):

Molecular target: T1, HLA-A*0205 (human)
T1 construct: Native HLA immunoprecipitated from shock-frozen tumor tissue
Experiment: HLA immunoprecipitation from glioblastoma tissue, peptide elution, ESI-LCMS/MS

B1: PTP-001 (peptide)
peptide: ALTTLMHQL
notes: Natural HLA ligand eluted from glioblastoma tissue
- binding result: binds
